Measured values published in US20120045393A1 (priority 2009, published 2012).
Non-standard residues stand in square brackets, D forms with d. *: point of attachment. d1Nal = N[C@H](Cc1cccc2ccccc12)C(=O)O; DO3A10CM = not defined here; Nicotinoyl = O=C(c1cccnc1)*; dCfe4 = not defined here; azaGly = NNC(=O)O; Sar = CNCC(=O)O; iPr = CC(C)*

How the values were obtained:
[1] = target: LHRH receptor (LHRH binding sites) on EFO-27 human ovarian cancer cells (human); assay: direct binding of 177Lu-labeled peptide to EFO-27 cells, single concentration
[2] = target: LHRH receptor (LHRH binding sites) on EFO-27 human ovarian cancer cells (human); assay: competition with [125I-Tyr8]BRU-2477 for binding to EFO-27 cells
[3] = target: LHRH receptor (LHRH binding sites) on EFO-27 human ovarian cancer cells (human); assay: competition with [125I-Tyr8]BRU-2477, EFO-27 cells
[4] = target: LHRH binding sites on EFO-27 human ovarian cancer cells (human); assay: competition with [125I-Tyr8]BRU-2477 on EFO-27 cells

Binder	% Bound [1]	EC50 [2]	EC50 [3]	also measured
DO3A10CM-[Sar]HWSH[dR]WYP[azaGly]-NH2 (reading uncertain; also: 177Lu complexed by DO3A10CM, printed as 177Lu-DO3A10CM-Sar-His-Trp-Ser-His-Darg-Trp-Tyr-Pro-azaGly-NH2) [^177Lu-BRU-2440]	0.21%			
XRWSHXWXP (Sar at 1; Darg at 6; Bpa4 at 8; C-terminal Dae linker carrying DO3A10CM) [BRU-3103]		170 nM	170 nM	
XHWSHXWXPX (177Lu held by the N-terminal DO3A10CM: 177Lu-DO3A10CM-Dafe4-His-Trp-Ser-His-Darg-Trp-Bpa4-Pro-azaGly-NH2) [^177Lu-BRU-2810]	2.4%			
XXRWSHXWXPX (N-terminal DO3A10CM; Gly-Abz4 linker before 1; Dnal2 at 1; Darg at 6; Bpa4 at 8; azaGly-NH2 at 10) [BRU-3002]		500 nM	500 nM	
XXRWSHXWXPX (N-terminal DO3A10CM; Dlys linker before 1; Dnal2 at 1; Darg at 6; Bpa4 at 8; azaGly-NH2 at 10) [BRU-3099]		440 nM	440 nM	
XXRWSHXWXPX (N-terminal DO3A10CM; Dap linker before 1; Dnal2 at 1; Darg at 6; Bpa4 at 8; azaGly-NH2 at 10) [BRU-3096]		370 nM	370 nM	
XHWSHXWXPX (177Lu held by the N-terminal DO3A10CM: 177Lu-DO3A10CM-Sar-His-Trp-Ser-His-Darg-Trp-Dip-Pro-azaGly-NH2) [^177Lu-BRU-2721]	0.79%			
XRWSHXWXP (Sar at 1; Darg at 6; Bpa4 at 8; C-terminal Bampy26 linker carrying DO3A10CM) [BRU-3080]		230 nM	230 nM	
XXHWSHXWXPX (177Lu held by the N-terminal DO3A10CM: 177Lu-DO3A10CM-Gly-Abz4-Sar-His-Trp-Ser-His-Darg-Trp-Bpa4-Pro-azaGly-NH2) [^177Lu-BRU-2696]	0.94%			
XRWSHXWXP (Dnal2 at 1; Darg at 6; Bpa4 at 8; C-terminal Dabt14 linker carrying DO3A10CM) [BRU-3042]		200 nM	200 nM	
XRWSHXWXP (AA1 Sar; AA6 Darg; AA8 Bpa4; C-terminal Pro9-M1daprp13-DO3A10CM) [BRU-3086]		1020 nM		fold reduced binding against peptide 18 (BRU-3103) [4]: 5 to 6 fold
XRWSHXWXP (Sar at 1; Darg at 6; Bpa4 at 8; C-terminal Da15o3pt linker carrying DO3A10CM) [BRU-3039]		280 nM	280 nM	
XRWSHXWX (Sar at 1; Darg at 6; Bpa4 at 8; Am2prd at 9 carrying DO3A10CM) [BRU-3117]		340 nM	340 nM	
XFWSHXWXPX (177Lu held by the N-terminal DO3A10CM: 177Lu-DO3A10CM-Sar-Phe-Trp-Ser-His-Darg-Trp-Bpa4-Pro-azaGly-NH2) [^177Lu-BRU-2738]	1.41%			
XHWSHXWXPX (177Lu held by the N-terminal DO3A10CM: 177Lu-DO3A10CM-Dnal1-His-Trp-Ser-His-Darg-Trp-Bpa4-Pro-azaGly-NH2) [^177Lu-BRU-2869]	9.2%			
DO3A10CM-G[Sar][dCfe4][d1Nal]S[Metyr][dK](Nicotinoyl)LK(iPr)P[dA]-NH2 (reading uncertain; also: 177Lu complexed by DO3A10CM, printed as 177Lu-DO3A10CM-Gly-Sar-Dcfe4-Dnal1-Ser-Metyr-Dlys(Nic)-Leu-Lys(isp)-Pro-Dala-NH2) [^177Lu-BRU-2613]	0.17%			
XRWSHXWXP (Dnal2 at 1; Darg at 6; Bpa4 at 8; C-terminal Da15o3pt linker carrying DO3A10CM) [BRU-2991]		210 nM	210 nM	
XRWSHXWXP (N-terminal DO3A10CM; Da48oa linker before 1; Dnal2 at 1; Darg at 6; Bpa4 at 8; C-terminal Da15o3pt at 10) [BRU-3100]		140 nM	140 nM	
DO3A10CM-[Sar]HWSH[dR]WP[azaGly]-NH2 (reading uncertain; also: 177Lu complexed by DO3A10CM, printed as 177Lu-DO3A10CM-Sar-His-Trp-Ser-His-Darg-Trp-azaG-NH2) [^177Lu-BRU-2767]	1.06%			
XHWSHXWXPX (177Lu held by the N-terminal DO3A10CM: 177Lu-DO3A10CM-Sar-His-Trp-Ser-His-Darg-Trp-Cfe4-Pro-azaGly-NH2) [^177Lu-BRU-2725]	0.41%			
XHWSHXWXPX (177Lu held by the N-terminal DO3A10CM: 177Lu-DO3A10CM-Adoa-Adoa-Sar-His-Trp-Ser-His-Darg-Trp-Bpa4-Pro-azaGly-NH2) [^177Lu-BRU-2896]	0.7%			
XHWSHXWXPX (N-terminal DO3A10CM; Dnal1 at 1; Darg at 6; Bpa4 at 8; azaGly-NH2 at 10) [BRU-2869]		360 nM	360 nM	EC50 [4]: 360 nM
XRWSHXWXP (Sar at 1; Darg at 6; Bpa4 at 8; C-terminal Maz4dahp17 linker carrying DO3A10CM) [BRU-3045]		210 nM	210 nM	
XRWSHXWXPG (as printed: Dnal2-R-W-S-H-Darg-W-Bpa4-P-G-Dabt14-DO3A10CM (C-terminal chelator)) [BRU-2990]		30200 nM		
XHWSHXWXPX (177Lu held by the N-terminal DO3A10CM: 177Lu-DO3A10CM-Sar-His-Trp-Ser-His-Darg-Trp-F5fe-Pro-azaGly-NH2) [^177Lu-BRU-2722]	0.36%			
